In PMC10786891, “Massively parallel profiling of RNA-targeting CRISPR-Cas13d”:
Numbering of substitutions follows the chain as printed.

T1: EsCas13d, nuclease-dead (Eubacterium siraeum, UniProt B0MS50, R295A;H300A;R849A;H854A)
T1 sequence: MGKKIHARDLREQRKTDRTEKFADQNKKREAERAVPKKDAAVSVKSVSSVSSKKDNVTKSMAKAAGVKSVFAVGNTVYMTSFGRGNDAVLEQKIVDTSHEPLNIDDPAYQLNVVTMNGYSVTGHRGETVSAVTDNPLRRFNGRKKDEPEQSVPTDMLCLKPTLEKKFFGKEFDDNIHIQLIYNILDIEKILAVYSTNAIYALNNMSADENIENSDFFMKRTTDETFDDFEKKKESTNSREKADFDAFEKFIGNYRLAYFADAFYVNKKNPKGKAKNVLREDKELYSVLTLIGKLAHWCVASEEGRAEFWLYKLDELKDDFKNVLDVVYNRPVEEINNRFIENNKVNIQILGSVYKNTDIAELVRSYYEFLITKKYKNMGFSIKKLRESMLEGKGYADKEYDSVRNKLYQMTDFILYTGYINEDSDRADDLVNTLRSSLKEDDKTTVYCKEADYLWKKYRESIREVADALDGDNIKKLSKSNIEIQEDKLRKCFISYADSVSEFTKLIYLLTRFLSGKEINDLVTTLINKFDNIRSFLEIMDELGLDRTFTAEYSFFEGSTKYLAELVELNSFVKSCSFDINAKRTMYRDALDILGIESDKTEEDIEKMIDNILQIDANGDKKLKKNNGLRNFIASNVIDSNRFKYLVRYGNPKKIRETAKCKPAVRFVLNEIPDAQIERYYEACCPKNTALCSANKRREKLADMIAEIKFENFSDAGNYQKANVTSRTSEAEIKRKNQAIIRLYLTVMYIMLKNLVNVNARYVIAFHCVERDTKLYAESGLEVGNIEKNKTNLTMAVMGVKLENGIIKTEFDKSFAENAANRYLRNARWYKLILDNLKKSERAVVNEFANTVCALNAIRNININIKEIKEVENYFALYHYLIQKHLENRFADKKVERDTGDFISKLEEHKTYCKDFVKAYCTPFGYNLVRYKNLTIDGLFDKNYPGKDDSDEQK

B1: target 1 insG 3' of 16,insU 3' of 12 (mixed)
RNA 1: CACCCGUGCAAAAAUGCAGGGGUCUAAAACUGAGCGGAUAACCUCUCUAUGG
RNA 2: GGGAAUGGAUCCACAUCUACGAAUUCGUACCAUAGAGGAGGUUUAUCCGCUCACCGAGAUCGGAAGAGCACACGU
B2: target 1 insA 3' of 2,insG 3' of 2 (mixed)
RNA 1: B1 RNA 1
RNA 2: GGGAAUGGAUCCACAUCUACGAAUUCGUACCAUAGAGAGGUUAUCCGCUCAGACCGAGAUCGGAAGAGCACACGU
B3: target 1 insG 3' of 1,insC 3' of 1 (mixed)
RNA 1: B1 RNA 1
RNA 2: B2 RNA 2 with A53C
B4: target 1 insG 3' of 22,insU 3' of 12 (mixed)
RNA 1: B1 RNA 1
RNA 2: B1 RNA 2 with C31G, A32C, U33A, A34U, G35A, A36G, G37A
B5: target 2 MT 5'PFS ACU 3'PFS AAC (mixed)
RNA 1: CACCCGUGCAAAAUUGCAGGGGUCUAAAACCUUCUCCAAAUUGUUUCAUCCU
RNA 2: GGGAAUGGAUCCACAUCUACGAAUUCACUAGGAUGAAACAAUUUGGAGAAGAACAGAUCGGAAGAGCACACGU
B6: target 2 MT 5'PFS UCG 3'PFS CAA (mixed)
RNA 1: B5 RNA 1
RNA 2: B5 RNA 2 with A27U, U29G, A52C, C54A
B7: target 2 MT 5'PFS ACU 3'PFS AAG (mixed)
RNA 1: B5 RNA 1
RNA 2: B5 RNA 2 with C54G
B8: target 2 MT 5'PFS GUA 3'PFS CGC (mixed)
RNA 1: B5 RNA 1
RNA 2: B5 RNA 2 with A27G, C28U, U29A, A52C, A53G
B9: target 2 MT 5'PFS UCA 3'PFS AUA (mixed)
RNA 1: B5 RNA 1
RNA 2: B5 RNA 2 with A27U, U29A, A53U, C54A
B10: target 2 MT 5'PFS UCA 3'PFS AUG (mixed)
RNA 1: B5 RNA 1
RNA 2: B5 RNA 2 with A27U, U29A, A53U, C54G
B11: target 2 MT 5'PFS GAU 3'PFS AGU (mixed)
RNA 1: B5 RNA 1
RNA 2: B5 RNA 2 with A27G, C28A, A53G, C54U
B12: target 2 MT 5'PFS GUC 3'PFS GAC (mixed)
RNA 1: B5 RNA 1
RNA 2: B5 RNA 2 with A27G, C28U, U29C, A52G
B13: target 2 MT 5'PFS UGU 3'PFS CCG (mixed)
RNA 1: B5 RNA 1
RNA 2: B5 RNA 2 with A27U, C28G, A52C, A53C, C54G
B14: target 2 MT 5'PFS UCG 3'PFS CAC (mixed)
RNA 1: B5 RNA 1
RNA 2: B5 RNA 2 with A27U, U29G, A52C
B15: target 2 MT 5'PFS UAU 3'PFS CUC (mixed)
RNA 1: B5 RNA 1
RNA 2: B5 RNA 2 with A27U, C28A, A52C, A53U
B16: target 2 MT 5'PFS GAU 3'PFS AGA (mixed)
RNA 1: B5 RNA 1
RNA 2: B5 RNA 2 with A27G, C28A, A53G, C54A
B17: target 2 MT 5'PFS UAU 3'PFS CUG (mixed)
RNA 1: B5 RNA 1
RNA 2: B5 RNA 2 with A27U, C28A, A52C, A53U, C54G
B18: target 2 MT 5'PFS GAU 3'PFS AGG (mixed)
RNA 1: B5 RNA 1
RNA 2: B5 RNA 2 with A27G, C28A, A53G, C54G
B19: target 2 MT 5'PFS GUU 3'PFS CAC (mixed)
RNA 1: B5 RNA 1
RNA 2: B5 RNA 2 with A27G, C28U, A52C
B20: target 2 MT 5'PFS GAU 3'PFS AGC (mixed)
RNA 1: B5 RNA 1
RNA 2: B5 RNA 2 with A27G, C28A, A53G
B21: target 2 MT 5'PFS GAG 3'PFS UAU (mixed)
RNA 1: B5 RNA 1
RNA 2: B5 RNA 2 with A27G, C28A, U29G, A52U, C54U
B22: target 2 MT 5'PFS UCA 3'PFS AUC (mixed)
RNA 1: B5 RNA 1
RNA 2: B5 RNA 2 with A27U, U29A, A53U
B23: target 2 MT 5'PFS UCG 3'PFS CAG (mixed)
RNA 1: B5 RNA 1
RNA 2: B5 RNA 2 with A27U, U29G, A52C, C54G
B24: target 2 MT 5'PFS ACU 3'PFS AAU (mixed)
RNA 1: B5 RNA 1
RNA 2: B5 RNA 2 with C54U
B25: target 2 MT 5'PFS GUA 3'PFS CGA (mixed)
RNA 1: B5 RNA 1
RNA 2: B5 RNA 2 with A27G, C28U, U29A, A52C, A53G, C54A
B26: target 2 MT 5'PFS ACU 3'PFS AAA (mixed)
RNA 1: B5 RNA 1
RNA 2: B5 RNA 2 with C54A
B27: target 2 MT 5'PFS GUU 3'PFS CAG (mixed)
RNA 1: B5 RNA 1
RNA 2: B5 RNA 2 with A27G, C28U, A52C, C54G
B28: target 2 MT 5'PFS GCC 3'PFS AAU (mixed)
RNA 1: B5 RNA 1
RNA 2: B5 RNA 2 with A27G, U29C, C54U
B29: target 2 MT 5'PFS UAU 3'PFS CUA (mixed)
RNA 1: B5 RNA 1
RNA 2: B5 RNA 2 with A27U, C28A, A52C, A53U, C54A
B30: target 2 MT 5'PFS UCG 3'PFS CAU (mixed)
RNA 1: B5 RNA 1
RNA 2: B5 RNA 2 with A27U, U29G, A52C, C54U
B31: target 2 MT 5'PFS GUU 3'PFS CAA (mixed)
RNA 1: B5 RNA 1
RNA 2: B5 RNA 2 with A27G, C28U, A52C, C54A
B32: target 2 MT 5'PFS UCA 3'PFS AUU (mixed)
RNA 1: B5 RNA 1
RNA 2: B5 RNA 2 with A27U, U29A, A53U, C54U
B33: target 2 MT 5'PFS AAA 3'PFS AAG (mixed)
RNA 1: B5 RNA 1
RNA 2: B5 RNA 2 with C28A, U29A, C54G
B34: target 2 MT 5'PFS GUU 3'PFS CAU (mixed)
RNA 1: B5 RNA 1
RNA 2: B5 RNA 2 with A27G, C28U, A52C, C54U
B35: target 2 MT 5'PFS GAA 3'PFS CCA (mixed)
RNA 1: B5 RNA 1
RNA 2: B5 RNA 2 with A27G, C28A, U29A, A52C, A53C, C54A
B36: target 2 MT 5'PFS GGC 3'PFS UUU (mixed)
RNA 1: B5 RNA 1
RNA 2: B5 RNA 2 with A27G, C28G, U29C, A52U, A53U, C54U
B37: target 2 MT 5'PFS GAA 3'PFS CCG (mixed)
RNA 1: B5 RNA 1
RNA 2: B5 RNA 2 with A27G, C28A, U29A, A52C, A53C, C54G
B38: target 2 MT 5'PFS UAU 3'PFS CUU (mixed)
RNA 1: B5 RNA 1
RNA 2: B5 RNA 2 with A27U, C28A, A52C, A53U, C54U

Molecular target: T1, EsCas13d, nuclease-dead
Assay: crRNA (strand 1, pre-loaded); Mg2+; 40 mM Tris-HCl pH 7.5, 150 mM NaCl, 6 mM MgCl2, 1 mM DTT, 0.1% Tween-20, 0.2 mg/ml BSA; 25 C; 10 min per concentration, then washed
Conditions: tags: His6-TwinStrep-SUMO cleaved; N-terminal SNAP kept (SNAP-Surface 488); label: 3' end held by stalled T7 RNA polymerase

B1 and B2 are within error of each other in Kd: 12.3 ± 0.9 nM for the first, 10.5 ± 1.2 nM for the second.

Compared with B3, B4 is 1.9-fold higher in Kd: 11 ± 1.4 nM for the first, 20.5 ± 1.8 nM for the second. The first binds more tightly here.

Going from B5 to B6, the Kd rises from 5.7 ± 0.8 nM to 10.7 ± 1.9 nM (1.9-fold).

Going from B7 to B8, the Kd rises from 3.7 ± 0.5 nM to 7.4 ± 0.5 nM (2-fold). The first binds more tightly here.

B9 and B10 are within error of each other in Kd: 6.2 ± 2 nM for the first, 4 ± 1 nM for the second.

B11 and B12 are within error of each other in Kd: 12.3 ± 2 nM for the first, 12.2 ± 2.8 nM for the second.

First: B13
Second: B14
The Kd of the first is 2.1-fold lower: 12.6 ± 1.4 nM for the first, 27 ± 8 nM for the second. The first binds more tightly here.

Compared with B15, B16 is 4.8-fold lower in Kd: 38 ± 7 nM for the first, 8 ± 1.1 nM for the second. The second binds more tightly here.

Going from B17 to B18, the Kd falls from 17.4 ± 1.9 nM to 10.4 ± 1 nM (1.7-fold). The second binds more tightly here.

First: B19
Second: B20
The Kd of the first is 2.2-fold higher: 15.3 ± 2.3 nM for the first, 7.1 ± 0.6 nM for the second.

Going from B21 to B22, the Kd falls from 5.6 ± 0.5 nM to 3.6 ± 0.6 nM (1.6-fold).

Compared with B23, B24 is 4.6-fold lower in Kd: 18.7 ± 2.6 nM for the first, 4.1 ± 0.5 nM for the second. The second binds more tightly here.

B25 and B26 are within error of each other in Kd: 6.4 ± 0.5 nM for the first, 4.7 ± 1.7 nM for the second.

Compared with B27, B28 is 1.7-fold higher in Kd: 10.9 ± 0.9 nM for the first, 18 ± 5 nM for the second. The first binds more tightly here.

B29 and B30 are within 1.5-fold of each other in Kd: 22.7 ± 2.8 nM for the first, about 30 nM for the second.

B31 and B32 are within 1.5-fold of each other in Kd: 6.6 ± 0.7 nM for the first, 4.4 ± 0.5 nM for the second.

First: B33
Second: B34
The Kd of the first is 3.5-fold lower: 4 ± 0.5 nM for the first, 14.2 ± 1.9 nM for the second.

B35 and B36 are within error of each other in Kd: 25 ± 6 nM for the first, 27 ± 5 nM for the second.

Compared with B37, B38 is 5.1-fold higher in Kd: 10.5 ± 1.2 nM for the first, 54 ± 14 nM for the second.
